Reference: patent US20140274782A1, “AFFINITY REAGENTS AND METHODS FOR DETECTION, PURIFICATION, AND PROTEOMIC ANALYSIS OF METHYLATED PROTEINS” (The Board of Trustees of the Leland Stanford Junior …, priority 2013, published 2014)

T1: G9a and GLP (Homo sapiens, UniProt Q96KQ7+Q9H9B1)
T1 sequence (Q96KQ7 2-1210 limits assumed): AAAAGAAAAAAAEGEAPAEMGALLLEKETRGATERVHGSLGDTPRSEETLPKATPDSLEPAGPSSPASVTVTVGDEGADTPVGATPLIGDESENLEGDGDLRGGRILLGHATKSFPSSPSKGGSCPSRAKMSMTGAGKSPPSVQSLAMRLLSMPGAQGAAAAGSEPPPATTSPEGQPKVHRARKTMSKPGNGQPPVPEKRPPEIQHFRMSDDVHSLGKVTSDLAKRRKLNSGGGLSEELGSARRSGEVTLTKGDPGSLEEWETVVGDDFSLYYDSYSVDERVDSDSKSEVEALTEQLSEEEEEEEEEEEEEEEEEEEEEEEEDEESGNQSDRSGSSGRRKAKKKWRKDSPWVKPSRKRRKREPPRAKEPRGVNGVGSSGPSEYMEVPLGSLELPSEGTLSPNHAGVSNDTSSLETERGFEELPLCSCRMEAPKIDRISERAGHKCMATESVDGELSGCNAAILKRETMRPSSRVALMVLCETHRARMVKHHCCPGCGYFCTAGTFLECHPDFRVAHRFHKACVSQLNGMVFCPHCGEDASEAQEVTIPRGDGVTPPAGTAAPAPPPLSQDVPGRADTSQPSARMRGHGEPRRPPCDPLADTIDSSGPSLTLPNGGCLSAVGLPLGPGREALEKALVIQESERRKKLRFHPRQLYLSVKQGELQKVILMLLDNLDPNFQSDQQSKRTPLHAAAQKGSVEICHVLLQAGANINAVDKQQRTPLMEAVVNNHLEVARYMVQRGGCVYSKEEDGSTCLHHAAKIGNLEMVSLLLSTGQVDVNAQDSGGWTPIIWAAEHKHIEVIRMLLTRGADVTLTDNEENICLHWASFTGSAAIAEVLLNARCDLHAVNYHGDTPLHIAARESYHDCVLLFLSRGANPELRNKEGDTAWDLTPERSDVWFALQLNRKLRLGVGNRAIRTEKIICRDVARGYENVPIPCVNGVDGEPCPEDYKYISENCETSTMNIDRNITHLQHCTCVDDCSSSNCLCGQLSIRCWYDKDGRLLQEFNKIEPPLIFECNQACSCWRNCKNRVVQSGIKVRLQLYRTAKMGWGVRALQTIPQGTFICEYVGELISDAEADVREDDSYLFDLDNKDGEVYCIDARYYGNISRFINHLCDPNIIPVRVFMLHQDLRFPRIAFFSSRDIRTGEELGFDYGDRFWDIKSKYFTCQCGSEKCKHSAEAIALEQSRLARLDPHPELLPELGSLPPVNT
T1 sequence (Q9H9B1 2-1298 limits assumed): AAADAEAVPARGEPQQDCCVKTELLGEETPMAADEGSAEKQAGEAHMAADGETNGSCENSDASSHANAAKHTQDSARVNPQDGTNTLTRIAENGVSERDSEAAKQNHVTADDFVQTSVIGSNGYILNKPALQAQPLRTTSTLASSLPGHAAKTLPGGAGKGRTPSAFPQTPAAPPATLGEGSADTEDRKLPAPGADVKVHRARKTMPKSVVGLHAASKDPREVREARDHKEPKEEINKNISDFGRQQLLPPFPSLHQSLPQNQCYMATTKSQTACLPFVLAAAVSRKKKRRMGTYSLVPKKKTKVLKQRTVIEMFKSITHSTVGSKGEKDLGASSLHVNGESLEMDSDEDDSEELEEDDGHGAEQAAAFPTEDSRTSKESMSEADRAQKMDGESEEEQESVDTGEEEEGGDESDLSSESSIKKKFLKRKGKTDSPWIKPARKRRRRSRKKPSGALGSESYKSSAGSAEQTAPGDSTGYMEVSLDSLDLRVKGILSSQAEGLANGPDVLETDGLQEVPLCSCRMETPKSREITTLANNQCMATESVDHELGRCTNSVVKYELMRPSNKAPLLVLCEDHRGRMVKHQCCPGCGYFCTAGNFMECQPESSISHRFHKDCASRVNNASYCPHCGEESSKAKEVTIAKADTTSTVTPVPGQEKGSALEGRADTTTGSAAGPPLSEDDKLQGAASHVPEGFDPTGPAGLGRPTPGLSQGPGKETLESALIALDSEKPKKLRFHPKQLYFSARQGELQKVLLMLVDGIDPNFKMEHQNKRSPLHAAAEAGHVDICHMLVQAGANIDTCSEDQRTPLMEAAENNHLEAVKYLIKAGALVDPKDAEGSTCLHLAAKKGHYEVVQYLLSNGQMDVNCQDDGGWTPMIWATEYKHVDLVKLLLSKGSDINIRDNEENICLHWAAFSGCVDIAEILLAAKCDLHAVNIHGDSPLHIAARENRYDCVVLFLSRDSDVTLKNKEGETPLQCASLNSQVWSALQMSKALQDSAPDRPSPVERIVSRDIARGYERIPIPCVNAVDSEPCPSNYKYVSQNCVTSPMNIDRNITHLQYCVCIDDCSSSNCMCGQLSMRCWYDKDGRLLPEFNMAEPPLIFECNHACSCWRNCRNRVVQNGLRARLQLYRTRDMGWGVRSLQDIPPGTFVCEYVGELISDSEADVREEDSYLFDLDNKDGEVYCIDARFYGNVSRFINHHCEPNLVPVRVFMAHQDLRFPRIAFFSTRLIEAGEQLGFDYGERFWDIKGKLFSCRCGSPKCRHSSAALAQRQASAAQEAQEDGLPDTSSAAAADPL


Tests used:
3×MBT domain of L3MBTL1 = assay: Triple SILAC pull-down, 3xMBT/3xMBTD355N ratio (cytoplasmic, nuclear and chromatin fractions of 293T cells); assay type: binding, human; conditions: SILAC ratio, pull-down 3xMBT vs 3xMBTD355N; for 3xMBT/D355N UNC Heavy: experiment with UNC0638 in heavy SILAC media; for 3xMBT/D355N UNC Light: experiment with UNC0638 in light SILAC media;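 for all read-outs here: proteins quantified with MaxQuant, requiring at least two unique peptides and quantification in both label directions, normalized to the mean of proteins from a digested loading control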
G9a and GLP = target: T1, G9a and GLP; assay: Triple SILAC pull-down after UNC0638 treatment of 293T cells, DMSO/UNC0638 ratio of protein captured by 3×MBT; assay type: cell-based; set-up: cells were treated for 24 hours with UNC0638 at 2.5 μM or DMSO vehicle control; endogenous in cells; host or cells: HEK 293T; conditions: for Relative to UNC0638 UNC Heavy / Relative to UNC0638 UNC Light: SILAC ratio DMSO/UNC0638 of protein pulled down with 3xMBT; for Relative to UNC0638 UNC Heavy: UNC0638 in heavy SILAC media; for Relative to UNC0638 UNC Light: UNC0638 in light SILAC media; for Relative to UNC0638 Average: average of UNC Light and UNC Heavy experiments;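 for all read-outs here: mass spectrometry (Q-Exactive) SILAC quantitation, DMSO/UNC0638 ratio computed after subtracting 3×MBTD355N mutant pull-down background, only proteins with at least twofold 3×MBT over mutant signal considered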

Relative to UNC0638 UNC Heavy (G9a and GLP) | Relative to UNC0638 UNC Light (G9a and GLP) | Relative to UNC0638 Average (G9a and GLP) | Molecule | 3xMBT/D355N UNC Heavy (3×MBT domain of L3MBTL1) | 3xMBT/D355N UNC Light (3×MBT domain of L3MBTL1)
0.07 log base 2 | 0.20 log base 2 | 0.13 log base 2 | HNRNPC (protein, UniProt P07910 2-306, looked up) Heterogeneous nuclear …: ASNVTNKTDPRSMNSRVFIGNLNTLVVKKSDVEAIFSKYGKIVGCSVHKGFAFVQYVNERNARAAVAGEDGRMIAGQVLDINLAAEPKVNRGKAGVKRSAAEMYGSVTEHPSPSPLLSSSFDLDYDFQRDYYDRMYSYPARVPPPPPIARAVVPSKRQRVSGNTSRRGKSGFNSKSGQRGSSKSGKLKGDDLQAIKKELTQIKQKVDSLLENLEKIEKEQSKQAVEMKNDKSEEEQSSSSVKKDETNVKMESEGGADDSAEEGDLLDDDDNEDRGDDQLELIKDDEKEAEEGEDDRDSANGEDDS | 2.39 log base 2 | 2.62 log base 2
0.35 log base 2 | −0.08 log base 2 | 0.13 log base 2 | PUM1 (protein, UniProt Q14671 2-1186, looked up) Pumilio homolog 1: SVACVLKRKAVLWQDSFSPHLKHHPQEPANPNMPVVLTSGTGSQAQPQPAANQALAAGTHSSPVPGSIGVAGRSQDDAMVDYFFQRQHGEQLGGGGSGGGGYNNSKHRWPTGDNIHAEHQVRSMDELNHDFQALALEGRAMGEQLLPGKKFWETDESSKDGPKGIFLGDQWRDSAWGTSDHSVSQPIMVQRRPGQSFHVNSEVNSVLSPRSESGGLGVSMVEYVLSSSPGDSCLRKGGFGPRDADSDENDKGEKKNKGTFDGDKLGDLKEEGDVMDKTNGLPVQNGIDADVKDFSRTPGNCQNSANEVDLLGPNQNGSEGLAQLTSTNGAKPVEDFSNMESQSVPLDPMEHVGMEPLQFDYSGTQVPVDSAAATVGLFDYNSQQQLFQRPNALAVQQLTAAQQQQYALAAAHQPHIGLAPAAFVPNPYIISAAPPGTDPYTAGLAAAATLGPAVVPHQYYGVTPWGVYPASLFQQQAAAAAAATNSANQQTTPQAQQGQQQVLRGGASQRPLTPNQNQQGQQTDPLVAAAAVNSALAFGQGLAAGMPGYPVLAPAAYYDQTGALVVNAGARNGLGAPVRLVAPAPVIISSSAAQAAVAAAAASANGAAGGLAGTTNGPFRPLGTQQPQPQPQQQPNNNLASSSFYGNNSLNSNSQSSSLFSQGSAQPANTSLGFGSSSSLGATLGSALGGFGTAVANSNTGSGSRRDSLTGSSDLYKRTSSSLTPIGHSFYNGLSFSSSPGPVGMPLPSQGPGHSQTPPPSLSSHGSSSSLNLGGLTNGSGRYISAAPGAEAKYRSASSASSLFSPSSTLFSSSRLRYGMSDVMPSGRSRLLEDFRNNRYPNLQLREIAGHIMEFSQDQHGSRFIQLKLERATPAERQLVFNEILQAAYQLMVDVFGNYVIQKFFEFGSLEQKLALAERIRGHVLSLALQMYGCRVIQKALEFIPSDQQNEMVRELDGHVLKCVKDQNGNHVVQKCIECVQPQSLQFIIDAFKGQVFALSTHPYGCRVIQRILEHCLPDQTLPILEELHQHTEQLVQDQYGNYVIQHVLEHGRPEDKSKIVAEIRGNVLVLSQHKFASNVVEKCVTHASRTERAVLIDEVCTMNDGPHSALYTMMKDQYANYVVQKMIDVAEPGQRKIVMHKIRPHIATLRKYTYGKHILAKLEKYYMKNGVDLGPICGPPNGII | 2.08 log base 2 | 1.66 log base 2
0.11 log base 2 | 0.14 log base 2 | 0.13 log base 2 | FAM98B (protein, UniProt Q52LJ0 1-433, looked up) Protein FAM98B: MRGPEPGPQPTMEGDVLDTLEALGYKGPLLEEQALTKAAEGGLSSPEFSELCIWLGSQIKSLCNLEESITSAGRDDLESFQLEISGFLKEMACPYSVLISGDIKDRLKKKEDCLKLLLFLSTELQASQILQNKKHKNSQLDKNSEVYQEVQAMFDTLGIPKSTTSDIPHMLNQVESKVKDILSKVQKNHVGKPLLKMDLNSEQAEQLERINDALSCEYECRRRMLMKRLDVTVQSFGWSDRAKVKTDDIARIYQPKRYALSPKTTITMAHLLAAREDLSKIIRTSSGTSREKTACAINKVLMGRVPDRGGRPNEIEPPPPEMPPWQKRQEGGGGRGGWGGGGGGGGRGGGGGGGGRGGWGGGGGGWGGGGGGGGGWGGGGGGGRGGFQGRGDYGGRGGYGGRGGYGGRGYGDPYGGGGGGGGGGGGGGGYRRY | 3.88 log base 2 | 3.18 log base 2
